We go through one substance from IntAct's records for PubMed 17805295.

The target in the experiment is Cdh23, Q99PF4-1.
Chain of Cdh23, Q99PF4-1 (Q99PF4 whole entry): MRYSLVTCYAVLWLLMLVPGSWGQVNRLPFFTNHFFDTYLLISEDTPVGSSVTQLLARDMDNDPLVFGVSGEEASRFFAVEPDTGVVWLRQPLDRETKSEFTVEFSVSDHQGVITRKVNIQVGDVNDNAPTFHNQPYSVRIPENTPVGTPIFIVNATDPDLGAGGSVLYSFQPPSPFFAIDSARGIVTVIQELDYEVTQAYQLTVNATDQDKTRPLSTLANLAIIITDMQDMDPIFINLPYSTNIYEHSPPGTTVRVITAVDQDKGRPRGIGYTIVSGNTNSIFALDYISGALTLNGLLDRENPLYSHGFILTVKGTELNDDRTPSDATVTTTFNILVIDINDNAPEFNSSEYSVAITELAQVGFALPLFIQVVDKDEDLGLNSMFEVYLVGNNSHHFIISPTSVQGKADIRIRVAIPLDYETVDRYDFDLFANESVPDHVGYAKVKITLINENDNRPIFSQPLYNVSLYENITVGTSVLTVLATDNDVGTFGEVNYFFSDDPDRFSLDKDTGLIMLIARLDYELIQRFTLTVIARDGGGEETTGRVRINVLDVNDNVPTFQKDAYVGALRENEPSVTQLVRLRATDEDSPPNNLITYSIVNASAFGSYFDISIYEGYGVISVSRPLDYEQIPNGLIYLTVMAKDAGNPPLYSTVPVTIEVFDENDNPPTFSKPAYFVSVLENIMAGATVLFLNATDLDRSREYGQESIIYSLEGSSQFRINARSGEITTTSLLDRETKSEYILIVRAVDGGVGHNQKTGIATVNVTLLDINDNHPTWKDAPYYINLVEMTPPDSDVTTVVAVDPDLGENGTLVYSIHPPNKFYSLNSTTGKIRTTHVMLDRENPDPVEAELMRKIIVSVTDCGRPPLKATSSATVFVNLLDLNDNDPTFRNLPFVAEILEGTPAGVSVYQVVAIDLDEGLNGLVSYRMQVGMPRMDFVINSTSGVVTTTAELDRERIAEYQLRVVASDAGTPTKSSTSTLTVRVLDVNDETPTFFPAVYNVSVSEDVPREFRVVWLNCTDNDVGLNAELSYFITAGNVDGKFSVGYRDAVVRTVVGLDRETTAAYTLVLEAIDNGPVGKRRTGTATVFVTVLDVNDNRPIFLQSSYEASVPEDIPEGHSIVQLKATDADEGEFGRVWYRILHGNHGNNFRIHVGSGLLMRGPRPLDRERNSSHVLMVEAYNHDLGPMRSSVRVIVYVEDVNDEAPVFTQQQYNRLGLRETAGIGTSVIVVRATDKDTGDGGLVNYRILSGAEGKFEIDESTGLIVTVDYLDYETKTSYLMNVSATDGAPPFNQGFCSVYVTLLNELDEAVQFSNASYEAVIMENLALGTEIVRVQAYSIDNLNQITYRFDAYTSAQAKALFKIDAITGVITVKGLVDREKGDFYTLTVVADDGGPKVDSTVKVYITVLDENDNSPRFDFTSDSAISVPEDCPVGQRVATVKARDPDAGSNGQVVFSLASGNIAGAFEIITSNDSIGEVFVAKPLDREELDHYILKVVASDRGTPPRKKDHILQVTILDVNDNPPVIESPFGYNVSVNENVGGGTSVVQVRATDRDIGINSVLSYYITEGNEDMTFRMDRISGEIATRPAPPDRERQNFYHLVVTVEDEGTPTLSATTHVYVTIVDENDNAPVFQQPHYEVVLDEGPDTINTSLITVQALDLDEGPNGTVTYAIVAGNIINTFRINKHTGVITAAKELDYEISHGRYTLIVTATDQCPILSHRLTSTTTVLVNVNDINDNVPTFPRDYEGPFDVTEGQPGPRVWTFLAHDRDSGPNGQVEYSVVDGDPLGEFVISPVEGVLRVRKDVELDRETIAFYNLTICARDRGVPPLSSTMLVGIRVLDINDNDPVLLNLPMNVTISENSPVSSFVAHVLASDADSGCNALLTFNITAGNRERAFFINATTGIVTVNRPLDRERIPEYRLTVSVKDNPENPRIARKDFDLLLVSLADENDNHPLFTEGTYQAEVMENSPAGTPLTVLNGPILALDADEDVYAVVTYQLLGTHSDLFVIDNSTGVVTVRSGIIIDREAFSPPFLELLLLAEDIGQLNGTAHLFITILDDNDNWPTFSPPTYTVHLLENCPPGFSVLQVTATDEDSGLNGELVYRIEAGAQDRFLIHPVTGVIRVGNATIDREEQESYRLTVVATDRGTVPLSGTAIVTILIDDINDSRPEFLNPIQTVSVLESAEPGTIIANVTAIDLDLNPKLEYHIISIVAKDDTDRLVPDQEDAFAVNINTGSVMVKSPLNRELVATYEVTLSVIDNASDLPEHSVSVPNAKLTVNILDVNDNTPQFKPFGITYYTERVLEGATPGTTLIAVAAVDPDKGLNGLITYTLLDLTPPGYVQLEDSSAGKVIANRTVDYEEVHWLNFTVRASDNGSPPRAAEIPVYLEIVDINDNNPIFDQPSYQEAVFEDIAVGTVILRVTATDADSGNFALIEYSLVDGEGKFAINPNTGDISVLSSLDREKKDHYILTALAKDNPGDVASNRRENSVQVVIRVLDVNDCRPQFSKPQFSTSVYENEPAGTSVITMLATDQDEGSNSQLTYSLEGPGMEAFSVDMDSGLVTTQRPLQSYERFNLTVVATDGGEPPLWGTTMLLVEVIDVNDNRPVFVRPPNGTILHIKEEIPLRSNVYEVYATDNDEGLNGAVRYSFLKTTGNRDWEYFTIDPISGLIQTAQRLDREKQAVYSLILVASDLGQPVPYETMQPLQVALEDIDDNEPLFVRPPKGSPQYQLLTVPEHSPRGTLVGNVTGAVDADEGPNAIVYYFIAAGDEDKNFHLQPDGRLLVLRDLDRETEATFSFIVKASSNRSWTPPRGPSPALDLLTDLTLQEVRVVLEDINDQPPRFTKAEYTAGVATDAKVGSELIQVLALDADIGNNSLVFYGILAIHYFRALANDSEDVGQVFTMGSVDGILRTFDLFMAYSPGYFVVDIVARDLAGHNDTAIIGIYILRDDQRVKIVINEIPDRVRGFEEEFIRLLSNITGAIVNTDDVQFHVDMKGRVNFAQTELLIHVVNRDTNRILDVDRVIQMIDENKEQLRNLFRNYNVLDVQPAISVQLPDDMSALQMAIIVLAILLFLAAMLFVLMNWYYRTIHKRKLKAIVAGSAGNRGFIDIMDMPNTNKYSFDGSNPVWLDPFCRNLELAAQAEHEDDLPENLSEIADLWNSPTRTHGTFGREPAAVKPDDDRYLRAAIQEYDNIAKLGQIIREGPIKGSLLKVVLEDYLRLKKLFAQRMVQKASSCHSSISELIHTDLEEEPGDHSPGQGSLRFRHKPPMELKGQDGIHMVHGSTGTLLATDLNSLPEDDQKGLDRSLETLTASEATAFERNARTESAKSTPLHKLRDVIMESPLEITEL

As to “Protocadherin-15 (Mus musculus), Q99PJ1 R139G”, the “effect of a mutation on the interaction” value is on record as “disrupting interaction strength”.
